We go through one molecule from patent publication US20250206846A1 (YEDA RESEARCH AND DEVELOPMENT, published 2025).

The target of assay [1] is T1, Loop-KLK4 synthetic cyclized peptide (CGLHSLEADQEPGSCC) (human, bridge (positions not given here); also: cyclized, chemistry not given here).
T1 construct: The peptide was coupled to KLH for immunization and to BSA for the ELISA tests of sera; no carrier is stated there; also called Loop3-KLK4; KLK4-Loop3
T1 peptide: CGLHSLEADQEPGSCC
The assay can be described thus: ELISA, plate coated with Loop-KLK4 peptide; target: Loop3-KLK4 peptide. How it is done: (§1) ELISA binding assay: A ninety-six-well plate (Nunc) was coated with KLK4 and Loop-KLK4 at 10 µg/ml. After blocking with 2% BSA in PBS, the plate was incubated with the antibodies for 1 h at 37° C. Bound antibodies were detected by peroxidase-conjugated antibody goat anti-human (Jackson ImmunoResearch). EC₅₀ was calculated with GraphPad Prism from […] curve fitting analysis.
(§2) Interaction of KLK4 monoclonal antibody was tested by ELISA using KLK4 & KLK4-Loop3. As a control, anti-GST monoclonal antibody was used.

In another assay the target is T2, recombinant human KLK4 (human, UniProt Q9Y5K2 31-253).
T2 construct: also called Kallikrein-4; Full KLK4
T2 sequence (Q9Y5K2 31-253 H197Q limits assumed): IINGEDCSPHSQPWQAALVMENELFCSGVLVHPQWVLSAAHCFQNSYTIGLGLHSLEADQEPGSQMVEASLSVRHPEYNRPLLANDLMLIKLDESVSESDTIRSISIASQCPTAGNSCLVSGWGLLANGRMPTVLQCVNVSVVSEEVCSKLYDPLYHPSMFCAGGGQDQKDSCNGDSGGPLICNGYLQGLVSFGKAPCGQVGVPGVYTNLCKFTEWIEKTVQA
The assay can be described thus: ELISA, plate coated with KLK4; target: full KLK4. The protocol: as §1, §2
(In general: In an ELISA, binding on a coated surface is turned into a signal by an enzyme label.)

Where no end group is shown, it is not given here.

A word on the EC50: it is the concentration needed to bring the measured effect to its halfway point.

B1: anti-KLK4 monoclonal antibody (antibody, IgG1, V domains shown)
VH: EVQLVESGGGLVQPKGSLKLSCAASGFTFKTYAMTWVRQTPGKGLEWVARIRNKNNNYATFYADSVKDRFTISRDDSQSMLYLLMNNLKTEDTAIYYCVRVNYWYFDVWGAGTTVTVSS
VL: EIVMTQSTAIMSASPGEKVTMTCRASSSVSSTYLHWYQQKSGASPKLWIYSTSNLASGVPARFSGSGSGTSYSLTVSSVEAEDAATYYCQQYSSYPLTFGGGTKLEIK
notes: Monoclonal antibody from a hybridoma of immunized balb-c mice; also called anti-KLK4 antibody
With B1, the EC50 in assay [1] is 0.271 nM; with recombinant human KLK4 it was 0.272 nM.
